Results taken from the Human Domainome abundance scans (Beltran et al. 2025).
± gives the uncertainty stated by the source.

B1: Proto-oncogene vav, residues 782 to 842; numbered along this chain, P15498 (parent)
chain: KYFGTAKARYDFCARDRSELSLKEGDIIKILNKKGQQGWWRGEIYGRVGWFPANYVEEDYS

Variants of: B1
Test: abundance fitness (aPCA) (normalised: wild type 0, dead -1); higher = more abundant; growth selection in yeast, the domain comes from the species named
Details: Homo sapiens

| Variant | abundance fitness |
| --- | --- |
| KYCGTAKARYDFCARDRSELSLKEGDIIKILNKKGQQGWWRGEIYGRVGWFPANYVEEDYS | -0.105 ± 0.086 |
| KYLGTAKARYDFCARDRSELSLKEGDIIKILNKKGQQGWWRGEIYGRVGWFPANYVEEDYS | 0.027 ± 0.057 |
| KYMGTAKARYDFCARDRSELSLKEGDIIKILNKKGQQGWWRGEIYGRVGWFPANYVEEDYS | -0.054 ± 0.087 |
| KYGGTAKARYDFCARDRSELSLKEGDIIKILNKKGQQGWWRGEIYGRVGWFPANYVEEDYS | -0.268 ± 0.09 |
| KYEGTAKARYDFCARDRSELSLKEGDIIKILNKKGQQGWWRGEIYGRVGWFPANYVEEDYS | -0.192 ± 0.17 |
| KYDGTAKARYDFCARDRSELSLKEGDIIKILNKKGQQGWWRGEIYGRVGWFPANYVEEDYS | -0.274 ± 0.13 |
| KYKGTAKARYDFCARDRSELSLKEGDIIKILNKKGQQGWWRGEIYGRVGWFPANYVEEDYS | -0.103 ± 0.12 |
| KYIGTAKARYDFCARDRSELSLKEGDIIKILNKKGQQGWWRGEIYGRVGWFPANYVEEDYS | 0.058 ± 0.094 |
| KIFGTAKARYDFCARDRSELSLKEGDIIKILNKKGQQGWWRGEIYGRVGWFPANYVEEDYS | -0.097 ± 0.27 |
| KFFGTAKARYDFCARDRSELSLKEGDIIKILNKKGQQGWWRGEIYGRVGWFPANYVEEDYS | 0.061 ± 0.11 |
| KVFGTAKARYDFCARDRSELSLKEGDIIKILNKKGQQGWWRGEIYGRVGWFPANYVEEDYS | -0.247 ± 0.087 |
| KPFGTAKARYDFCARDRSELSLKEGDIIKILNKKGQQGWWRGEIYGRVGWFPANYVEEDYS | -0.212 ± 0.1 |
| KRFGTAKARYDFCARDRSELSLKEGDIIKILNKKGQQGWWRGEIYGRVGWFPANYVEEDYS | -0.226 ± 0.083 |
| KTFGTAKARYDFCARDRSELSLKEGDIIKILNKKGQQGWWRGEIYGRVGWFPANYVEEDYS | -0.138 ± 0.093 |
| KKFGTAKARYDFCARDRSELSLKEGDIIKILNKKGQQGWWRGEIYGRVGWFPANYVEEDYS | -0.392 ± 0.23 |
| KGFGTAKARYDFCARDRSELSLKEGDIIKILNKKGQQGWWRGEIYGRVGWFPANYVEEDYS | -0.15 ± 0.093 |
| KNFGTAKARYDFCARDRSELSLKEGDIIKILNKKGQQGWWRGEIYGRVGWFPANYVEEDYS | 0.228 ± 0.19 |
| KHFGTAKARYDFCARDRSELSLKEGDIIKILNKKGQQGWWRGEIYGRVGWFPANYVEEDYS | -0.138 ± 0.1 |
| KDFGTAKARYDFCARDRSELSLKEGDIIKILNKKGQQGWWRGEIYGRVGWFPANYVEEDYS | 0.021 ± 0.14 |
| KEFGTAKARYDFCARDRSELSLKEGDIIKILNKKGQQGWWRGEIYGRVGWFPANYVEEDYS | -0.238 ± 0.18 |
| KWFGTAKARYDFCARDRSELSLKEGDIIKILNKKGQQGWWRGEIYGRVGWFPANYVEEDYS | -0.36 ± 0.12 |

| Variant | abundance fitness |
| --- | --- |
| KLFGTAKARYDFCARDRSELSLKEGDIIKILNKKGQQGWWRGEIYGRVGWFPANYVEEDYS | -0.323 ± 0.065 |
| KCFGTAKARYDFCARDRSELSLKEGDIIKILNKKGQQGWWRGEIYGRVGWFPANYVEEDYS | -0.229 ± 0.1 |
| KSFGTAKARYDFCARDRSELSLKEGDIIKILNKKGQQGWWRGEIYGRVGWFPANYVEEDYS | -0.033 ± 0.078 |
| KMFGTAKARYDFCARDRSELSLKEGDIIKILNKKGQQGWWRGEIYGRVGWFPANYVEEDYS | -0.082 ± 0.12 |
| PYFGTAKARYDFCARDRSELSLKEGDIIKILNKKGQQGWWRGEIYGRVGWFPANYVEEDYS | -0.822 ± 0.32 |
| HYFGTAKARYDFCARDRSELSLKEGDIIKILNKKGQQGWWRGEIYGRVGWFPANYVEEDYS | -0.109 ± 0.45 |
| YYFGTAKARYDFCARDRSELSLKEGDIIKILNKKGQQGWWRGEIYGRVGWFPANYVEEDYS | -0.261 ± 0.25 |
| AYFGTAKARYDFCARDRSELSLKEGDIIKILNKKGQQGWWRGEIYGRVGWFPANYVEEDYS | -0.456 ± 0.14 |
| EYFGTAKARYDFCARDRSELSLKEGDIIKILNKKGQQGWWRGEIYGRVGWFPANYVEEDYS | -0.16 ± 0.12 |
| DYFGTAKARYDFCARDRSELSLKEGDIIKILNKKGQQGWWRGEIYGRVGWFPANYVEEDYS | -0.437 ± 0.27 |
| LYFGTAKARYDFCARDRSELSLKEGDIIKILNKKGQQGWWRGEIYGRVGWFPANYVEEDYS | -0.21 ± 0.1 |
| NYFGTAKARYDFCARDRSELSLKEGDIIKILNKKGQQGWWRGEIYGRVGWFPANYVEEDYS | 0.099 ± 0.13 |
| RYFGTAKARYDFCARDRSELSLKEGDIIKILNKKGQQGWWRGEIYGRVGWFPANYVEEDYS | -0.643 ± 0.2 |
| TYFGTAKARYDFCARDRSELSLKEGDIIKILNKKGQQGWWRGEIYGRVGWFPANYVEEDYS | -0.27 ± 0.12 |
| QYFGTAKARYDFCARDRSELSLKEGDIIKILNKKGQQGWWRGEIYGRVGWFPANYVEEDYS | 0.088 ± 0.27 |
| VYFGTAKARYDFCARDRSELSLKEGDIIKILNKKGQQGWWRGEIYGRVGWFPANYVEEDYS | -0.241 ± 0.12 |
| WYFGTAKARYDFCARDRSELSLKEGDIIKILNKKGQQGWWRGEIYGRVGWFPANYVEEDYS | -0.474 ± 0.12 |
| FYFGTAKARYDFCARDRSELSLKEGDIIKILNKKGQQGWWRGEIYGRVGWFPANYVEEDYS | -0.159 ± 0.36 |
| GYFGTAKARYDFCARDRSELSLKEGDIIKILNKKGQQGWWRGEIYGRVGWFPANYVEEDYS | -0.227 ± 0.095 |
| SYFGTAKARYDFCARDRSELSLKEGDIIKILNKKGQQGWWRGEIYGRVGWFPANYVEEDYS | -0.198 ± 0.13 |
